T1: human CD20 (human, UniProt P11836 1-297)
T1 sequence (looked up): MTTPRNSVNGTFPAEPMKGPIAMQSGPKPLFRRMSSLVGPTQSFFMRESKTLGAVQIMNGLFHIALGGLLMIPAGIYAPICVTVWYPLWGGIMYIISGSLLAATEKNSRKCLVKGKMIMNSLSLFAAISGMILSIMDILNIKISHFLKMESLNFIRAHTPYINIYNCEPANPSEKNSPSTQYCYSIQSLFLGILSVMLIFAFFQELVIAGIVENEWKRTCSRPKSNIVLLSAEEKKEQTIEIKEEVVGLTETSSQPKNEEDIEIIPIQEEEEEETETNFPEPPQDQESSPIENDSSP


Legend:
human CD20 [1] = target: T1, human CD20; test: cell-based or functional assay
human CD20 [2] = target: T1, human CD20; test: FACS KD on SB cells expressing CD20 (GMF against mAb concentration, nonlinear fit)
Method: The affinity of purified antibodies against CD20 (mAbs 1.1.2, 1.2.1, 2.1.2, 1.3.3, 1.5.3, 1.10.3.1, 1.13.2), Rituximab (positive control), and B1 was determined by FACS. Briefly, SB cells expressing CD20 were resuspended in FACS buffer (2% FBS, 0.05% NaN₃) at a concentration of approximately 5 million cells/mL. HSB cells were also resuspended in FACS buffer at a concentration of approximately 9 million cells/mL. Cells were kept on ice. Purified antibodies were serially diluted in filtered 1×PBS (2×) across 11 wells in 96-well plates. The twelfth well in each row contained buffer only. 1×PBS and cells were added to each mAb well such that the final volume was […] and each well contained approximately 375,000 cells. The final molecular concentration ranges for the mAbs were as follows:
Plates were placed on a plate shaker for 3 hours at 4° C., then spun and washed 3× with PBS. 200 μL of 145 nM Cy5 goat α-human polyclonal antibody was added to each well, and 200 μL of 192 nM Cy5 goat α-mouse polyclonal antibody was added to the cells complexed with B1 antibody. Plates were then incubated for 40 minutes at 4° C., then spun and washed 3× with PBS.
The Geometric Mean Fluorescence (GMF) of 10,000 cells for each mAb concentration was determined using a FACSCalibur instrument. No significant nonspecific binding (no significant signal) was apparent from the HSB cells. In each row containing the SB cells, the signal from the twelfth well (containing buffer only) was subtracted from the signal from the first 11 wells. A nonlinear plot of GMF as a function of molecular mAb concentration was fit using Scientist software using the equation: […]

| % Lysis Daudi 0.001 µg/ml ADCC (human CD20 [1]) [%] | % Lysis Daudi 1 µg/ml ADCC (human CD20 [1]) [%] | % Lysis Raji 0.001 µg/ml ADCC (human CD20 [1]) [%] | % Lysis Raji 1 µg/ml ADCC (human CD20 [1]) [%] | % Lysis Ramos 0.001 µg/ml ADCC (human CD20 [1]) [%] | % Lysis Ramos 1 µg/ml ADCC (human CD20 [1]) [%] | EC50 µg/ml Daudi CDC (human CD20 [1]) [µg/mL] | EC50 µg/ml Raji CDC (human CD20 [1]) [µg/mL] | EC50 µg/ml Ramos Apoptosis Cell Titer Glo (human CD20 [1]) [µg/mL] | EC50 µg/ml Ramos CDC (human CD20 [1]) [µg/mL] | Kd (human CD20 [2]) [nM] | EC50 µg/ml Ramos Apoptosis Alamar Blue (human CD20 [1]) [µg/mL] | EC50 µg/ml Ramos Apoptosis Annexin V (human CD20 [1]) [µg/mL] | EC50 µg/ml Ramos Apoptosis WST-1 (human CD20 [1]) [µg/mL] | Binder |
| --- | --- | --- | --- | --- | --- | --- | --- | --- | --- | --- | --- | --- | --- | --- |
| 56 | 86 | 8 | 45 | 8 | 67 | > 10 | > 10 | 15.2 | > 10 | 11.9 | – | – | – | mAb 1.2.1 (antibody, human IgG1, V domains shown, Human IgG1 kappa; also called 1.2.1.1; 50-001H1_2_1_1) VH: EVQLVQSGAEVKKPGESLKISCKGSGYSFTSYWIGWVRQMPGKGLEWMGIIYPGDSDTRYSPSFQGQVTISADKSISTAYLQWSSLKASDTAMYYCARLGDYYNYYGMDVWGQGTTVTVSS VL: DIVMTQTPLSSPVTLGQPASISCRSSQSLVHSDGKTYLSWLQQRPGQPPRLLIYKSSNRFSGVPDRFSGSGAGTDFTLKISRVEAEDVGVYYCVQATQFPITFGQGTRLEIK |
| 63 | 88 | 9 | 33 | 10 | 58 | 1.91 | 0.22 | 0.332 | 0.23 | 8.9 | 0.0485 | 0.886 | 0.0096 | mAb 1.3.3 (antibody, V domains shown, Human IgG1 kappa) VH: EVQLVQSGAEVKKPGESLKISCKGSGYSFTSYWIGWVRQMPGKGLEWMGIIYPGDSDTRYSPSFQGQVTISADKSITTAYLQWSSLKASDTAMYYCARHPSYGSGSPNFDYWGQGTLVTVSS VL: not shown |

— patent US20070014720A1 (published 2007)
